What was measured:
[1] = system: Spiral ganglion neurons (SGNs); experiment: Survival of dissociated spiral ganglion neurons (Example C); assay type: cell-based, rat; details: 1 µM; compared to vehicle-only control, 0.01% DMSO; FIG. 6C
Procedure: Spiral ganglion neurons (SGNs) were harvested from P1-P3 rates, dissociated, and cultured in 96-well plates. The SGNs were treated with neurotrophins and/or antibodies at various concentrations. After about 24 hours, media was exchanged to serum-free media and the neurotrophins and/or antibodies were replenished. Cells were cultured for an additional 48-72 hours before being fixed using 4% paraformaldehyde (PFA) and stained using 4′,6-diamidino-2-phenylindole (DAPI). […] Surviving neurons were identified as cells with intact soma and at least one neurite.

[2] = system: Méniére’s disease symptoms; details: infusion into the scala tympani; cited from earlier work
tinnitus = details: administered by IV; cited from earlier work
SGNs = experiment: SGN complexity, dissociated SGNs (Example D); assay type: cell-based, rat; details: compared to IgG-treated control, FIG. 7D
Excerpt: SGNs were immunostained, imaged, and batch analyzed with PerkinElmer Harmony 4.6 software. Changes in the complexities of SGNs upon treatment with various agents were examined. […] All of the images in a single well were stitched together and analyzed. SGN somas are shown in the upper right panel and SGN neurites are shown in the lower left panel. As shown in the lower right panel, each neurite tree is assigned to a single cell for analysis. Depending on the stitching, occasionally neurites will not meet the criteria due to gaps that exceed a user-defined threshold.

noise exposed adult rats = experiment: Noise-induced hearing loss / synaptopathy in rats (Example A1); assay type: in vivo, rat
Procedure: Poloxamer 407 gel at 16% was prepared using the cold method. In brief, a 16% w/w stock solution of poloxamer 407 was prepared by slowly adding it to a cold buffer solution (10 mM PBS, pH 7.4). Sterilization was achieved by filtration. Human recombinant BDNF was suspended with an appropriate amount of poloxamer 407 solution to reach a range of concentration of 0.05 to 5.0 mg/ml BDNF.
Male rats (Charles River) approximately 10-11 months of age served as subjects (N = 6 per group). Prior to any procedures, animals were anesthetized using a combination of xylazine (10 mg/kg) and ketamine (90 mg/kg) for up to one hour via the intraperitoneal route. If needed, an intraoperative booster was administered intraperitoneally representing one-tenth of the original dose. […]
Auditory Brainstem Response (ABR) assessment (wave 1) - During the procedure, additional anesthetic (xylazine and ketamine) was administered if needed to maintain the depth of anesthesia sufficient to insure immobilization and relaxation. ABRs were recorded in an electrically and acoustically shielded chamber, one ear at a time. […] Acoustic calibration was performed with TDT software (SigCal) and thresholds were expressed as dB SPL in conditions identical to that of threshold recordings in animals. […] Wave 1 was quantified by averaging the wave 1 amplitude from intensities ranging between 60-80 dB SPL. […]

[3] = system: noise-induced cochlear synaptopathy; experiment: Noise-induced cochlear synaptopathy in rats (Example G); assay type: in vivo, rat
Procedure: Animals: Male Sprague-Dawley rats (5-6 months of age) were used for efficacy studies and females (2-3 months) were used for pharmacokinetic studies.
Formulations: Human recombinant BDNF was suspended in the thermoreversible polymer Poloxamer 407 (16%) to reach a range of BDNF concentrations.
Intratympanic (IT) injection: Formulations were administered under anesthesia as a single IT injection (20 µl through the tympanic membrane into the middle ear, targeting the round window membrane (RWM).
Noise-induced cochlear synaptopathy: Rats (n= 44 per treatment group) received a single acoustic trauma (105 dB SPL, 8-16 kHz, 1h) under anesthesia. 24 hours later (Day 1) animals received a single bilateral IT injection of the treatment regimens. Auditory function (ABR and ABR wave 1 amplitude) was monitored at day 1 and then every 7 days for 28 days. At termination (Day 28), cochleae were collected and assessed for evidence of cochlear synaptopathy (IHC synaptic puncta counts).
Immunohistochemistry: Dissected cochleae were immunostained with antibodies against presynaptic (CtBP2) and postsynaptic (GluR2) proteins and MyosinVIIa to label hair cells. Cochleae were then frequency mapped and high-magnification images were obtained with a Zeiss LSM-880 confocal microscope and imaged at an interval of 0.35 µm.
Intratympanic BDNF improves Auditory Brainstem Response (ABR) thresholds and wave I amplitudes in adult rats. The Auditory Brainstem Response (ABR) is an objective test that measures hearing sensitivity and can identify abnormalities in the peripheral auditory system and the auditory pathway up through the brainstem. Adult male rats were bilaterally exposed to noise followed by an intratympanic injection of 0.05 mg/ml BDNF in P407 24 hours after noise exposure. ABR recordings were obtained at days 1, 7, 14, and 28.

OCCN(CCO)c1ccc(C(c2ccc(Cl)cc2)c2ccc(N(CCO)CCO)cc2)cc1 [LM22b10]
Survival of SGNs [1]: not improved

Cc1ccccc1C(=O)Nc1ccc(C(=O)N2CCCC(N(C)C)c3ccccc32)cc1 (stereo not drawn) [OPC-31260]
Méniére’s disease symptoms [2]: marked reduction

CCN(CC)CC(=O)Nc1c(C)cccc1C [Lidocaine]
sufferers in whom the noise associated with tinnitus is reduced or eliminated (tinnitus): 60-80%

B1: neurotrophin-3 (protein, UniProt P20783 139-257, looked up)
Neurotrophin-3: YAEHKSHRGEYSVCDSESLWVTDKSSAIDIRGHQVTVLGEIKTGNSPVKQYFYETRCKEARPVKNGCRGIDDKHWNSQCKTSQTYVRALTSENNKLVGWRWIRIDTSCVCALSRKIGRT
notes: neurotrophin; Trk agonist on spiral ganglion neurons
total neurite length, total number of extremities, segments, and nodes per cell (differences) (SGNs): not statistically significant

B2: brain-derived neurotrophic factor (protein, UniProt P23560 19-247, looked up)
Neurotrophic factor BDNF …: APMKEANIRGQGGLAYPGVRTHGTLESVNGPKAGSRGLTSLADTFEHVIEELLDEDQKVRPNEENNKDADLYTSRVMLSSQVPLEPPLLFLLEEYKNYLDAANMSMRVRRHSDPARRGELSVCDSISEWVTAADKKTAVDMSGGTVTVLEKVPVSKGQLKQYFYETKCNPMGYTKEGCRGIDKRHWNSQCRTTQSYVRALTMDSKKRIGWRFIRIDTSCVCTLTIKRGR
notes: Human recombinant BDNF; neurotrophin, Trk agonist on spiral ganglion neurons
hearing function (wave I amplitude) (noise exposed adult rats; single intratympanic 0.005% BDNF in Poloxamer 407 24 hrs after noise, compared to vehicle, FIG. 3A): improved hearing function | number of ribbon synapses per inner hair cell (noise exposed adult rats; single intratympanic 0.005% BDNF in Poloxamer 407, Day 28, compared to vehicle, FIG. 3B): increased | total neurite length, total number of extremities, segments, and nodes per cell (differences) (SGNs): not statistically significant | ABR wave I amplitudes ([3]; adult male rats, BDNF or vehicle treatment following noise exposure, across many frequencies, FIG. 12C): Significant improvements | recovery of initial ABR threshold shifts ([3]; adult male rats, intratympanic 0.05 mg/ml BDNF in P407 24 hours after noise exposure, ABR at days 1, 7, 14, 28, vs P407 vehicle, FIG. 12A): more rapid recovery | levels of hearing loss ([3]; adult male rats, intratympanic 0.05 mg/ml BDNF in P407 24 hours after noise exposure, vs P407 vehicle): reduced | synaptic puncta (co-expression of CtBp2 and GluR2) per inner hair cell ([3]; adult rats after noise damage, each frequency region throughout the cochlea, FIG. 13C): increased | cochlear synaptopathy ([3]; adult rats, intratympanic BDNF): repairs

Source: patent US20230190642A1, “GROWTH FACTOR OTIC FORMULATIONS” (OTONOMY, INC., priority 2018, published 2023)
